Among the data in PMC7145629 are binding result, Kd and binding signal values, retold here.

Holding throughout (experiment): EMSA
(A gel shift assay detects complexes by their altered migration in electrophoresis.)

Data set [1] addresses T1, DNMT1 (BAH1-BAH2-MTase fragment) (human, UniProt P26358 728-1600).
Data set [2] addresses T1, DNMT1 (BAH1-BAH2-MTase fragment). The source holds these as a separate data set.
Data set [3] addresses DNMT3A;DNMT3L (human;human, UniProt Q9Y6K1;Q9UJW3 628-912;178-386, |).
The target of data set [4] is DNMT3B;DNMT3L (human;human, UniProt Q9UBC3;Q9UJW3 562-853;178-386, |).
For data set [5], the target named is T1, DNMT1 (BAH1-BAH2-MTase fragment). This is another data set of the same source.
Data set [6] shares this target. This is another data set of the same source.
The target is the same in data set [7]. This is another data set of the same source.

Read-outs that look alike come from different tables or passages of the source.

T1 sequence (P26358 728-1600): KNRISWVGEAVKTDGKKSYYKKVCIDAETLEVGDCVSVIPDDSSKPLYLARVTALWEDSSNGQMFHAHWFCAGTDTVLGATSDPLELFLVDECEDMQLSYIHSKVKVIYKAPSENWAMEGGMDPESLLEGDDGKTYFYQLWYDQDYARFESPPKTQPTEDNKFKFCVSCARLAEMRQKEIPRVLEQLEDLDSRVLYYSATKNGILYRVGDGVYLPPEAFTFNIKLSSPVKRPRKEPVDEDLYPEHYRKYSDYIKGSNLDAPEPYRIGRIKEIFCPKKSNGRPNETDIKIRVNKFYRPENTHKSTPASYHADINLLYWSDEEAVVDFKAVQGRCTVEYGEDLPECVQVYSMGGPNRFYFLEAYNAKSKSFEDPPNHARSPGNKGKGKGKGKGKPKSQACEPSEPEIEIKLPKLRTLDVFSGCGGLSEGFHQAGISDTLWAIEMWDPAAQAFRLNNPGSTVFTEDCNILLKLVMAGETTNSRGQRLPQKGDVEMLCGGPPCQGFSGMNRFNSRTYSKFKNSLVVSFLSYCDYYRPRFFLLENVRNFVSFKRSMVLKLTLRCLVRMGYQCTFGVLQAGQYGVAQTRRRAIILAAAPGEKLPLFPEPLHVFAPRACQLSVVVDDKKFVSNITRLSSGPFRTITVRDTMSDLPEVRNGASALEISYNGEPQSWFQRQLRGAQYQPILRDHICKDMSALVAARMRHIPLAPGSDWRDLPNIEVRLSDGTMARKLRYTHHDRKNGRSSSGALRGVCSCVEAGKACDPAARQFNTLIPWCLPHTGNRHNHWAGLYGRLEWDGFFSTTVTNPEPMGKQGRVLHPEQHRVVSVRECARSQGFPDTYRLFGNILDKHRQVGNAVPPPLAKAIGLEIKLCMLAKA
DNMT3B;DNMT3L, sequence (Q9UJW3 178-386, chain 2 of 2, other chains not shown): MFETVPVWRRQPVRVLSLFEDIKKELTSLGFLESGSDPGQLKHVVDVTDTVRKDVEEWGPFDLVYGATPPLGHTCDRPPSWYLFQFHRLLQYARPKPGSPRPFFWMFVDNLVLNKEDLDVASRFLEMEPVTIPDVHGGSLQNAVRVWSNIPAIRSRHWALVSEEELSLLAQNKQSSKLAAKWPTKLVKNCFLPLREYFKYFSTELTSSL
DNMT3A;DNMT3L, sequence (Q9Y6K1 628-912, chain 1 of 2): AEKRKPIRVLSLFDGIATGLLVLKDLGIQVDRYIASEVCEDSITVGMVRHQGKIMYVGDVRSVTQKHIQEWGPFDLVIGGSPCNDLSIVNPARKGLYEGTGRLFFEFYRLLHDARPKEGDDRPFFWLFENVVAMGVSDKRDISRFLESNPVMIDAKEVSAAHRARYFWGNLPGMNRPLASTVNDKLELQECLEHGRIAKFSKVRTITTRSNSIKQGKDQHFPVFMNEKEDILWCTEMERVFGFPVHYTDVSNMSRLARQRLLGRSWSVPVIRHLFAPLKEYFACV
DNMT3A;DNMT3L, sequence (Q9UJW3 178-386, chain 2 of 2): as the sequence (Q9UJW3 178-386, chain 2 of 2, other chains not shown) above

As for CCCATGCGTAGGGTCTGATGCCTATGCGTG (ssDNA) [Apt. #10], in data set [1], the binding result is on record as “binds”.

As for AGATCTGGGGGTGAGTCCACTTCTG (ssDNA) [Bulge2], the binding result in data set [2] is recorded as “binds”.

Usually Kd stands for the free concentration of one partner at which half of the binding sites on the other are occupied at equilibrium, for simple one-to-one binding. A higher Kd goes with lower affinity. Turning to AGAAGTGGGGGTGAGTCCACTTCTG (ssDNA) [Apt. #9], the dissociation constant Kd in data set [1] stood at 770 ± 110 nM. Moreover, the binding result in data set [3] and in data set [4] was “no binding” each time.

Turning to CGTAGATGTGCGAGTGACATCTACGG (ssDNA) [Apt. #8], in data set [1], the binding result was “binds”.

Consider CGTAGATGTGCTGACATCTACGG (ssDNA) [Modified ssDNA #6], for which the binding result in data set [1] was “no binding”.

In the case of CGTCAGATGTGCGAGTGACATCTCAACGG (ssDNA) [Modified ssDNA #5], the binding result in data set [1] was “no binding”.

With AGATGTGCGAGTGACATCTCAACGGCCTAT (ssDNA) [Apt. #11], the binding result in data set [1] was “binds”.

For TGCGAGTGACATCTCAACGG (ssDNA) [non-binding ssDNA #12], the binding result in data set [1] was “no binding”.

As to ATAGAAGTGGGGGTGAGTCCACTTCTATG (ssDNA) [Steml], the binding result in data set [2] is “binds”.

On to CAGATGTGCGAGTGACATCTC (ssDNA) [Modified ssDNA #7], for which the binding result in data set [5] is reported as “no binding”.

B1: hemiDNA 36-mer (dsDNA)
DNA 1: GACGACGACGACGACGACGACGACGACGACGACGAC
DNA 2: GTCGTCGTCGTCGTCGTCGTCGTCGTCGTCGTCGTC
modifications: 5-methylcytosine at every C of strand 2
For B1, the binding signal in data set [6] was ~4 fold weaker than Apt. #9.

With CCCGGGACGCGGGUCCGGGACAG (ssRNA) [R2 RNA], in data set [7], the binding signal was ~4 fold less binding than Apt. #9.
